For one assay, the target named is PD1 (human) (UniProt Q15116). Description: cell-based or functional assay.
For the next assay, the target named is PD-L1 (human) (UniProt Q9NZQ7). In words: cell-based or functional assay.
Sequence of UniProt Q9NZQ7 (Q9NZQ7 19-290): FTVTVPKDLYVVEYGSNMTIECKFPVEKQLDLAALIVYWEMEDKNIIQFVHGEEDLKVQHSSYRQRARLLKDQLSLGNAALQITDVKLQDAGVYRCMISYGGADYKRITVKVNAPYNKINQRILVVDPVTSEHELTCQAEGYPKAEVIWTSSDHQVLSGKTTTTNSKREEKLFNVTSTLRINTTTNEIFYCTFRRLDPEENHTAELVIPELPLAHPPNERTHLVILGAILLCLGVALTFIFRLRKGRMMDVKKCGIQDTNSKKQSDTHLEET

Sequence of UniProt Q15116 (Q15116 25-288): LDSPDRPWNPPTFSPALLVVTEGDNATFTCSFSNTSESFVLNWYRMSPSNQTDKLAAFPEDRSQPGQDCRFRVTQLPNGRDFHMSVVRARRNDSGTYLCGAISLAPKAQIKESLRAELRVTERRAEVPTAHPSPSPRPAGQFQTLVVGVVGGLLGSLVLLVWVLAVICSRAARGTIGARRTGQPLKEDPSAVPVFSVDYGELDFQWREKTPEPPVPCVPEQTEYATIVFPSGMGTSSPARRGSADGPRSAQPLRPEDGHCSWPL

For the substance Anti-PD1 (clone J116) (antibody), in the assay with PD1 (human), the MEDI-565-mediated cytolysis of SW1463 with fresh T cells in the presence of anti-PD1 was determined as 66.3%; the tumor killing in second round, T cells previously incubated with MEDI-565 and tumor, anti-PD1 added was found to be 37.1%; the tumor-specific cytolytic activity, fresh T cells, PD1 inhibition alone amounted to 49.9%.
Anti-PD-L1 (clone MIH1) (antibody) had a tumor-specific cytolytic activity, fresh T cells, PD-L1 inhibition alone with PD-L1 (human) of 49.9%.

The record behind these values is patent US20170015758A1.
